{
  "source": "paper PMC3276558",
  "about": "“The B-Cell Specific Transcription Factor, Oct-2, Promotes Epstein-Barr Virus Latency by Inhibiting the Viral Immediate-Early Protein, BZLF1”",
  "molecular_target": "Oct-2 Q221A (UniProt P09086 1-479, Q221A)",
  "sequence (P09086 whole entry Q221A)": "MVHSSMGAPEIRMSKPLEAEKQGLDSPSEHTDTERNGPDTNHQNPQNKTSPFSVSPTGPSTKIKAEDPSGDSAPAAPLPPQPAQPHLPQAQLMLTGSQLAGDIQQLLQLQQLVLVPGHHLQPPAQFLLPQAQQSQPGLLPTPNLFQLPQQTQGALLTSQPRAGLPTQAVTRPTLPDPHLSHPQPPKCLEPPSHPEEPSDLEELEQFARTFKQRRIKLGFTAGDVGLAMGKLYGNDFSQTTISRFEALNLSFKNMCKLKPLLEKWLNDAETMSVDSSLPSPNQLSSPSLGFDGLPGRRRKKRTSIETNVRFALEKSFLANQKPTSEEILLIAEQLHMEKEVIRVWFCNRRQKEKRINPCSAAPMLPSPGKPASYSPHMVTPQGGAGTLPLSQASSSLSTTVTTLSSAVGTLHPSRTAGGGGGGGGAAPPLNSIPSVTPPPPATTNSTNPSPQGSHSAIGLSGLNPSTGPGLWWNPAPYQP",
  "experiment": "EMSA; EMSA with in vitro-translated protein and 32P-labelled annealed ds oligonucleotide; buffer, salt, pH and temperature not given in the material",
  "details": "protein: ivt; label: 32P (T4 PNK, 5' end); blunt",
  "data": [
    {"binder": "Oct probe (dsDNA) DNA 1: CAGTGATGCAAATCTTGT DNA 2: ACAAGATTTGCATCACTG", "values": [
      {"measurement": "binding result", "result": "no binding"}
    ]}
  ]
}
